Measured values published in US20120052069A1 (Amgen, published 2012).

Target: β-Klotho overexpressed in recombinant human 293T kidney cells
Assay: cell-based or functional assay

EC50 (nM), ELK luciferase assay: 0.4 nM
Efficacy, ELK luciferase assay: 100%
B1: human FGF21 (wild-type mature FGF21) (ligand)
chain: HPIPDSSPLLQFGGQVRQRYLYTDDAQQTEAHLEIREDGTVGGAADQSPESLLQLKALKPGVIQILGVKTSRFLCQRPDGALYGSLHFDPEACSFRELLLEDGYNVYQSEAHGLPLHLPGNKSPHRDPAPRGPARFLPLPGLPPAPPEPPGILAPQPPDVGSSDPLSMVGPSQGRSPSYAS
